Measurements as given in article PMC2822398.

Target: variola virus topoisomerase IB (vTopIB) (variola virus (smallpox), UniProt P32989 1-314)
Experiment: X-ray crystallography

variola virus topoisomerase IB (vTopIB), sequence (P32989 whole entry): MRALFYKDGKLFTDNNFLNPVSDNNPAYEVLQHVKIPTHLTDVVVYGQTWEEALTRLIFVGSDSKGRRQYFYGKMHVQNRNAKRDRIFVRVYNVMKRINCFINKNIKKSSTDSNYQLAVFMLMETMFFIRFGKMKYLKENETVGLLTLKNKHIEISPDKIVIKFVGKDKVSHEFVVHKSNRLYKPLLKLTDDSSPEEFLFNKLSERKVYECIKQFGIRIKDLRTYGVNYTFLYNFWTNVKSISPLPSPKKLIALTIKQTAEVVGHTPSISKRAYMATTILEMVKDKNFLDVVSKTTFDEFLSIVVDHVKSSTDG

B1: nicked vTopIB-binding duplex (three oligonucleotides) (dsDNA)
DNA 1: GTGTCGCCCTT
DNA 2: ATTCC
DNA 3: CGGAATAAGGGCGACA
modifications: nick at the scissile phosphate (phosphodiester missing), filled by vanadate in the crystal
- binding result: binds
